These results are taken from the supplement of paper PMC9942255.

Where “and” joins values, the source holds several entries; their conditions need not be identical. Equal entries are not always repeated.

The data set concerns Bacillus subtilis DB104 (SP-AmyQ fusion secretion). Kind of data set: AmyQ secretion efficiency, weighted average sort bin (1 = best secretion, 10 = worst) (bin number (weighted average, 1-10)); higher = lower secretion efficiency. The method in brief:
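Secretion score gives the read-frequency-weighted average bin number, normalised to beads per bin, with low-abundance sequences left out. A B. subtilis DB104 library expressing mature AmyQ fused to designed signal peptides, integrated at amyE, was encapsulated with fluorescein-starch at about 0.3 cells per ~65 nL alginate bead. Beads were grown about 13 h at room temperature, stained with nile red, and the occupied ones were sorted by large-particle flow cytometry into 10 equally populated bins by green/red fluorescence ratio before the amplicons from each bin were Illumina-sequenced.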

MRKKTKNRLISSVLSTVVISSLLFPGAAGASSP: the AmyQ secretion efficiency was 1.67.

For the sequence MRKKTKNRLISSVLSTVVISSLLFPGAAGCSSK, the AmyQ secretion efficiency is 5.98.

MRKKTKNRLISSVLSTVVISSLLFPQEAGASSK gave an AmyQ secretion efficiency of 1.83.

In the case of MRKKTKNRLISSVLSTVVISSPGAAGASSK, the AmyQ secretion efficiency was determined as 3.33.

MRKKTKNRLISSVRKTVVISSLLFPGAAGASSK registered an AmyQ secretion efficiency of 4.05.

Turning to MRKLKRVLLLLVTGLFMSLFAVTATASAQTG, the AmyQ secretion efficiency was 1.02.

In turn, MRKLWISLLFALTLIFTMAFSNMSAQAAGK came in with an AmyQ secretion efficiency of 2.67.

The sequence MRKNNNLFFFFMTIFAFLTGLMMFGTITAASASPD registered an AmyQ secretion efficiency of 3.7.

For the sequence MRKNRIKRKKVLSLGLLSFMVTPVSAASK, the AmyQ secretion efficiency stood at 7.91.

In turn, MRKNRILALFVLSLGLLFSFMVTPVSAASK registered an AmyQ secretion efficiency of 1.99.

MRKNRILALFVLSLGLLKRKRKKVSAASK gave an AmyQ secretion efficiency of 6.69.

With MRKNRILALFVLSLGLLRRKVTPVSAASK, the AmyQ secretion efficiency was determined as 7.91.

With MRKNRILALFVLSLGLLSFMVTPCSAASK, the AmyQ secretion efficiency was found to be 2.01.

The sequence MRKNRILALFVLSLGLLSFMVTPISAASK yielded an AmyQ secretion efficiency of 2.15.

MRKNRILALFVLSLGLLSFMVTPSSTVSAASK displayed an AmyQ secretion efficiency of 2.01.

Regarding MRKNRILALFVLSLGLLSFMVTPTSAASK, the AmyQ secretion efficiency turned out to be 2.

Consider MRKNRILALFVLSLGLLSFMVTPVSAASK, for which the AmyQ secretion efficiency was 2.04 and 2.05 and 2.92.

Turning to MRKNRILALFVLSLGLLSFMVTPVSAKRK, the AmyQ secretion efficiency was determined as 2.57.

Consider MRKNRILALFVLSLGLLSFMVTPVSRASK, for which the AmyQ secretion efficiency was determined as 8.98.

Take MRKNRILALFVLSLGLLSFMVTPVSTASK: the AmyQ secretion efficiency was determined as 5.93.

Consider MRKNRLLLNILALFVLSLGLLSFMVTPVSAASK, for which the AmyQ secretion efficiency came to 1.08.

Take MRKNRRGKQGTLSLGLLSFMVTPVSAASK: the AmyQ secretion efficiency was determined as 7.32.

The sequence MRKNRSSMSFTLILALFVLSLGLLSFMVTPVSAASK gave an AmyQ secretion efficiency of 1.45.

Regarding MRKRKILLSSALSLGMLVSAAPVLATSS, the AmyQ secretion efficiency came to 2.04.

As to MRKRKKKSMLTVMIASLFIFSSQALAVQY, the AmyQ secretion efficiency was determined as 6.79.

Turning to MRKRKKLSVAVAASFMSLSISLPGVQAAEG, the AmyQ secretion efficiency is 1.73.

For the sequence MRKRKKRLSVAVAASFMSLSISLPGVQAAEG, the AmyQ secretion efficiency came out at 2.16.

Regarding MRKRKKRTIFAFLTGLMMFGTITAASASPD, the AmyQ secretion efficiency was 5.69.

The sequence MRKRKRRLILSAVLFLSCFFGARQTEASASKR registered an AmyQ secretion efficiency of 2.98.

The sequence MRKRKVVGFLSVLGLAAVFPLTAQAEKA came in with an AmyQ secretion efficiency of 3.02.

MRKRLFRVCFLAALIMAFTLPNSVYAQKP had an AmyQ secretion efficiency of 2.73.

MRKRQGSGYGGLMMFGTITAASASPD had an AmyQ secretion efficiency of 7.27.

For MRKRRKKILALFVLSLGLLSFMVTPVSAASK, the AmyQ secretion efficiency is 2.65.

As to MRKRRKRGIQAFAGGIILATAVLAAVFYLTDEDQAAAV, the AmyQ secretion efficiency is 6.73.

The sequence MRKRRTIFAFLTGLMMFGTITAASASPD returned an AmyQ secretion efficiency of 4.74.

MRKRTKTSLLLAGLCTAAQMVFVTHASAEES came in with an AmyQ secretion efficiency of 3.51.

For MRKSLITLGLASFTILVIGTSSFLIPFTSKTASAETL, the AmyQ secretion efficiency worked out at 1.81.

In the case of MRKSLITLGLASIVIGTSSFLIPFTSKTASAETL, the AmyQ secretion efficiency was found to be 2.2.

The sequence MRKSLITLGLASVIGTKASAETL gave an AmyQ secretion efficiency of 5.6.

In the case of MRKSLITLGLASVIGTSSFLIPFTKASAETL, the AmyQ secretion efficiency turned out to be 2.6.

For the sequence MRKSLITLGLASVIGTSSFLIPFTSKTASAETL, the AmyQ secretion efficiency was 2.73 and 5.9 and 4.16.

In turn, MRKSLITLGLASVIGTSSFLIPFTSKTHSAETL registered an AmyQ secretion efficiency of 6.74.

MRKSLITLGLASVIGTSSFLIPFTSKTLSAETL registered an AmyQ secretion efficiency of 4.7.

As for MRKSLITLGLASVISIIVFLIAFTSKTASAETL, the AmyQ secretion efficiency amounted to 2.48.

In the case of MRKTIFAFLTGLMMFEDDEEDASASPD, the AmyQ secretion efficiency came to 5.45.

In turn, MRKTIFAFLTGLMMFFGTITAASASPD had an AmyQ secretion efficiency of 1.98.

Regarding MRKTIFAFLTGLMMFGTITAASASPF, the AmyQ secretion efficiency turned out to be 4.61.

For the sequence MRKTIFAFLTGLMMFGTITAASASPR, the AmyQ secretion efficiency turned out to be 4.47.

MRKTIFAFLTGLMMFGTITAASKSPD: the AmyQ secretion efficiency was 6.

On to MRKTIFAFLTGLMMFGTITAASRSPD, for which the AmyQ secretion efficiency is 6.51.

For MRKTIFAFLTGLMMFGTITACSASPD, the AmyQ secretion efficiency was 5.81.

Take MRKTIFAFLTGLMMFGTITAISASPD: the AmyQ secretion efficiency worked out at 5.52.

As to MRKTIFAFLTGLMMFGTITALSASPD, the AmyQ secretion efficiency came out at 5.45.

For the sequence MRKTIFAFLTGLMMFGTITAMSASPD, the AmyQ secretion efficiency was 5.39.

Turning to MRKTIFAFLTGLMMFGTITAPSASPD, the AmyQ secretion efficiency was 5.98.

The sequence MRKTIFAFLTGLMMFGTITAQSASPD had an AmyQ secretion efficiency of 5.11.

MRKTIFAFLTGLMMFGTITASPSTASASPD came in with an AmyQ secretion efficiency of 2.04.

In turn, MRKTIFAFLTGLMMFIFTSSGTITAASASPD displayed an AmyQ secretion efficiency of 1.89.

Consider MRKTIFAFLTGLMMFKKRTAASASPD, for which the AmyQ secretion efficiency stood at 6.93.

With MRKTIFAFLTGLMMFKRRKKKASASPD, the AmyQ secretion efficiency was found to be 7.76.

MRKTKKRKLTGLMMFGTITAASASPD had an AmyQ secretion efficiency of 4.65.

Turning to MRKTRRKKKRGLMMFGTITAASASPD, the AmyQ secretion efficiency came out at 5.82.

Regarding MRKTSLLLAGLCTAAQMVFVTHASAEES, the AmyQ secretion efficiency was 2.32.

For the sequence MRKVFPLILSAVLFLSCFFGARQTEASASKR, the AmyQ secretion efficiency amounted to 2.13.

For the sequence MRKVITCVMAASLTLGSLLPAGYASAKED, the AmyQ secretion efficiency turned out to be 3.26.

In turn, MRKVITCVMAASLTLGSLLPAGYATAKED came in with an AmyQ secretion efficiency of 3.88.

With MRKVLTMCFLGLILFVPTALADNS, the AmyQ secretion efficiency stood at 2.17.

For MRKVVGFLSVLGLAAVFPLTAQAEKA, the AmyQ secretion efficiency amounted to 2.03.

MRKWYFILLAGVLTSVILAFVYDKGKANEE displayed an AmyQ secretion efficiency of 2.67.

Regarding MRKWYFILLAGVLTSVILAFVYDKTKANDD, the AmyQ secretion efficiency amounted to 6.75.

Take MRKWYFILLAGVLTSVILAFVYDKTKYNEE: the AmyQ secretion efficiency worked out at 4.09.

As for MRKWYQYQGAGVLTSVILAFVYDKTKANEE, the AmyQ secretion efficiency stood at 8.25.

Regarding MRKYTFVIASILLSFLSVLSGGHHESKAFPV, the AmyQ secretion efficiency was found to be 5.44.

MRKYTQIASILLSFLSVLSGGHHESKAFPV: the AmyQ secretion efficiency came out at 6.41.

Sequence MRKYTTKGYQKTYFLSVLSGGHHESKAFPV came in with an AmyQ secretion efficiency of 8.3.

MRKYTVIASILLSFLSVLASTVFVSKAFPV came in with an AmyQ secretion efficiency of 8.75.

The sequence MRKYTVIASILLSFLSVLDEDDEDHHESKAFPV showed an AmyQ secretion efficiency of 5.95.

MRKYTVIASILLSFLSVLESKAFPV returned an AmyQ secretion efficiency of 4.71.

As to MRKYTVIASILLSFLSVLFGFHHESKAFPV, the AmyQ secretion efficiency was 3.04.

With MRKYTVIASILLSFLSVLFGVAHESKAFPV, the AmyQ secretion efficiency was 3.89.

The sequence MRKYTVIASILLSFLSVLFIVVVTSKAFPV came in with an AmyQ secretion efficiency of 5.84.

MRKYTVIASILLSFLSVLKKKKHHKSKAFPV: the AmyQ secretion efficiency stood at 7.85.

MRKYTVIASILLSFLSVLRGGHHRSKAFPV returned an AmyQ secretion efficiency of 7.77.

Sequence MRKYTVIASILLSFLSVLSGGHHESKAFPR came in with an AmyQ secretion efficiency of 4.58.

For the sequence MRKYTVIASILLSFLSVLSGGHHESKAFPV, the AmyQ secretion efficiency was 3.25 and 4.96.

In turn, MRKYTVIASILLSFLSVLSGGHHESKARRR gave an AmyQ secretion efficiency of 7.19.

On to MRKYTVIASILLSFLSVLSGGHHEVATSKAFPV, for which the AmyQ secretion efficiency was 3.74.

On to MRKYTVIASILLSFLSVLSGGHHEWKAFPV, for which the AmyQ secretion efficiency is 4.79.

Regarding MRKYTVKRSILLSFLSVLSGGHHESKAFPV, the AmyQ secretion efficiency turned out to be 6.95.

The sequence MRKYTVRRKRKRSFLSVLSGGHHESKAFPV gave an AmyQ secretion efficiency of 7.56.

MRMLWRGQKSCGTYLTLAPCAQAAEP gave an AmyQ secretion efficiency of 7.51.

In turn, MRMLWRMLALCLLALLLAPCAQAAEP gave an AmyQ secretion efficiency of 1.73.

On to MRMLWRMMISLALCGLALTLAPCAQAAEP, for which the AmyQ secretion efficiency came out at 1.79.

For MRMLWRSKRLCGLALTLAPCAQAAEP, the AmyQ secretion efficiency was 6.7.

In the case of MRMLWRSKRRCKLALTLAPCAQAAEP, the AmyQ secretion efficiency came out at 7.06.

MRMLWRSLALCGLALPCAQAAEP registered an AmyQ secretion efficiency of 6.75.

As to MRMLWRSLALCGLALTLADDDCAQAAEP, the AmyQ secretion efficiency came to 2.72.

On to MRMLWRSLALCGLALTLAFLSVSLFFVPCAQAAEP, for which the AmyQ secretion efficiency is 1.41.

MRMLWRSLALCGLALTLAICIAQAAEP gave an AmyQ secretion efficiency of 4.76.

For MRMLWRSLALCGLALTLAKRRCAQAAEP, the AmyQ secretion efficiency was determined as 6.64.

As to MRMLWRSLALCGLALTLALPCAQAAEP, the AmyQ secretion efficiency was determined as 2.19.

In turn, MRMLWRSLALCGLALTLAPCAQAAKK had an AmyQ secretion efficiency of 2.93.

Regarding MRMLWRSLALCGLALTLAPCAQAAPK, the AmyQ secretion efficiency was 2.07.

Turning to MRMLWRSLALCGLALTLAPCAQAATP, the AmyQ secretion efficiency is 2.06.

As for MRMLWRSLALCGLALTLAPCAQADDD, the AmyQ secretion efficiency was determined as 4.62.

Sequence MRMLWRSLALCGLALTLAPCAQCAEP came in with an AmyQ secretion efficiency of 3.11.

As to MRMLWRSLALCGLALTLAPCAQGAEP, the AmyQ secretion efficiency turned out to be 2.58.

Sequence MRMLWRSLALCGLALTLAPCAQIAEP gave an AmyQ secretion efficiency of 6.42.

MRMLWRSLALCGLALTLAPCAQLAEP displayed an AmyQ secretion efficiency of 6.58.

On to MRMLWRSLALCGLALTLAPCAQSAEP, for which the AmyQ secretion efficiency amounted to 2.34.
